Experiment [1] addresses T1, Recombinant mouse VEGFR1-Fc (R&D Systems) (mouse, UniProt P35969 27-759, limits assumed).
T1 construct: bought; not shown: Fc part of the bought fusion, not described
T1 sequence (looked up): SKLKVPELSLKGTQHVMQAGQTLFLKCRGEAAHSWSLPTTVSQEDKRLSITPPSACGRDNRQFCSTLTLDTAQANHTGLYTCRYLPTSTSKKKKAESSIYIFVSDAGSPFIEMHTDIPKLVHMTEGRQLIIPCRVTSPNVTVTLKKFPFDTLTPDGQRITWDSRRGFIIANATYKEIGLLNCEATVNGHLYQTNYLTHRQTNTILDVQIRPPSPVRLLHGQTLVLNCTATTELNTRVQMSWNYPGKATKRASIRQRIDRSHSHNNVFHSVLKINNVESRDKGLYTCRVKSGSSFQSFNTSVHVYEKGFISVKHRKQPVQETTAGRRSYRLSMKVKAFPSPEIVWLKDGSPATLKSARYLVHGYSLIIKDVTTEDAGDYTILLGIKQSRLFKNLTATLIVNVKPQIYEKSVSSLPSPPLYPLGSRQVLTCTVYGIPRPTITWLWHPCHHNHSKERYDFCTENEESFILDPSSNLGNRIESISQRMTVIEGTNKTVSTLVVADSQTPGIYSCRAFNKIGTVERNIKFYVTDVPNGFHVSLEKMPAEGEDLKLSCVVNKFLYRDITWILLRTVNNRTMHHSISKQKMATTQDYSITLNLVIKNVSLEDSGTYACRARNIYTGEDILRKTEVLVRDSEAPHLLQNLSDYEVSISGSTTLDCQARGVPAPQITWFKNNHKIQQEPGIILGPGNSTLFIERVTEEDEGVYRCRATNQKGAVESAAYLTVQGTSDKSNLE
Briefly: MSD ECL competition on plate-bound mouse VEGFR1-Fc; competitor biotin PlGF (2 nM). The procedure, abridged: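 IC50 and maximal percent inhibition come from electro-chemiluminescence readings of bound ligand, detected with Sulfo-tagged streptavidin on an MSD SECTOR S 600 imager. Receptor (human or mouse VEGFR1-Fc, or His-tagged cyno VEGFR1, 0.5 ug/ml) was captured for 1 hour at room temperature on Protein A/G- or anti-His mAb-coated MSD 384 plates blocked with Blocker A. Half-log antibody dilutions were pre-incubated for 30 minutes before biotinylated VEGFA (0.2 nM) or PlGF (2 nM) was added.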

In experiment [2] the target is T2, cynomolgus monkey VEGFR1 (soluble antigen of the KinExA and SPR affinity assays) (cynomolgus monkey). Briefly: KinExA, solution. On the procedure:
Kinetic exclusion assay (KEA; KinExA) was used to analyze the binding of anti-VEGFR1 antibodies to human, mouse and cynomolgus monkeys VEGFR1. KEA is a fluorescence-based solution method, and it is described in detail in the literature (Darling and Brault, 2004). To measure the affinity of an interaction, a series of solutions with a fixed concentration of one interactant (A) and varying concentrations of another interactant (B) are prepared and allowed to reach equilibrium. After equilibration, the concentration of free A is determined by flowing the equilibrated mixture through a column packed with beads modified with reactant B. Free A binds to the beads and is then detected using a fluorescently labeled polyclonal antibody.
Briefly, fixed concentrations (300 pM, 60 pM, 12 pM, 2.4 or 0.5 pM) of Ab were used to prepare a serial dilution of the antigen (2 nM to 0.52 pM, or 800 pM to 5.37 fM). The complex titrations were incubated at RT to reach binding equilibrium for at least 2 days. After incubation, the samples were run on the KinExA3200 or KinExA4000 instrument to assess free antibody in the reaction. During these studies some of the data were rejected because the experiments failed or failed the acceptance criteria. For mouse VEGFR1 the 60 and 300 pM concentrations were rejected due to high titrant related NSB. The dissociation equilibrium constant, (KD), was determined using the n-curve analysis feature of the KinExA Pro software. This program uses nonlinear least-square regression analysis of the globally fitted data to a 1:1 binding model. (CI=confidence interval).

The target in experiment [3] is T2, cynomolgus monkey VEGFR1 (soluble …). Briefly: SPR.
Experiment [4] addresses T3, NECTIN1 Isoform Gamma (NM_203286.1) (human, UniProt Q15223-3 31-352).
T3 construct: whole, on cells
T3 sequence (looked up): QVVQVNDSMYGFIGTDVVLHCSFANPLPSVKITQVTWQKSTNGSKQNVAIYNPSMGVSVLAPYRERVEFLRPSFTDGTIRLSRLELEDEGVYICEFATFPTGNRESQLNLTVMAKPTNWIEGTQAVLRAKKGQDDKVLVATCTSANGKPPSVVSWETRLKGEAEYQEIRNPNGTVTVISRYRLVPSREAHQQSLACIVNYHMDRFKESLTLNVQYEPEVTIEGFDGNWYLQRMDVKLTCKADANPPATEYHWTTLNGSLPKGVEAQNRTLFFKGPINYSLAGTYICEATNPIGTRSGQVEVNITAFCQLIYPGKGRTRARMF
Briefly: Retrogenix cell microarray, fixed HEK293 cells; blank cells in Table 32 (topology TS and S). On the procedure: This human cell microarray methodology has been previously described in the literature (Freeth, J. et al, SLAS Discovery, 25 (2), 223-230, 2020). Primary screening was performed on slides arrayed with fixed HEK293 cells with each spot of HEK293 cells expressing either a unique protein from the cell surface-ome, a cell surface tethered human secreted protein, or a heterodimeric human cell surface receptor. In total, 5,528 unique gene products were represented in this primary screen (4,103 human plasma membrane proteins (+some untethered secreted proteins)+1,425 cell surface tethered human secreted proteins). Briefly, slides containing fixed transfected HEK293 cells were overlaid with a solution of test antibody (2 μg/mL), incubated, and washed. Binding was assessed using AlexaFluor647-conjugated anti-human IgG Fc detection antibody and fluorescence quantitation on ImageQuant. […] Located in the ER, off-target binding to CRELD2 was of less concern. Nectin-1, FGFR2, and ISLR, on the other hand, display broad tissue expression profiles. Cross-reactivity to these proteins is undesirable because binding to these targets might have a significant impact on pharmacokinetic and biodistribution profiles of the molecules. This off-target binding was subsequently confirmed by flow cytometry on live HEK293 cells transiently expressing these ‘off-target’ proteins identified in the primary screen.

Where “and” joins values, the source holds several entries; their conditions need not be identical. Equal values may be shown once.

B1: VGFB78 (antibody, human IgG1, lambda, L234A L235A, V domains shown)
VH: EVQLLESGGGLVQPGGSLRLSCAASSFTFYNYDMTWVRQAPGKGLEWVAGIGTSGTDMYYADSVKGRFTISRDNSKNTLYLQMNSLRAEDTAIYYCAKDYYYYGMDVWGLGTTVTVSS
VL: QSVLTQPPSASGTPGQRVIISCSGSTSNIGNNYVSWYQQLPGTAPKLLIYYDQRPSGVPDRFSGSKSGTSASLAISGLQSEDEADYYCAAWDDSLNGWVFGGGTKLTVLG
notes: human IgG1 (L234A/L235A/D265S)
Usually IC50 stands for the concentration that gives 50% inhibition. In general, Kd refers to the concentration at which binding is half-saturated. As for B1, in experiment [1], the IC50 came to 0.243 nM and the “Max % Inh.” value was 100%. In addition, in experiment [2], the Kd came to 0.00071 nM.

B2: VGFB82 (antibody, human IgG1, lambda, L234A L235A, V domains shown)
VH: EVQLLESGGGLVQPGGSLRLSCEASGFDFSTYAMNWVRQAPGKGLEWVATINSEGTITSHAPAVKGRFTISRDNSKNTAYVQMNSLRAEDSAVYYCSSTTGTTHGMDVWGRGTTVTVSS
VL: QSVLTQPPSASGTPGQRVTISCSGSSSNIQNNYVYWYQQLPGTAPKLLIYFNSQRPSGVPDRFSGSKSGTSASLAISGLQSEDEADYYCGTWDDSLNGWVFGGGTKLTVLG
notes: as for B1
B2: in experiment [1], the IC50 is 0.221 nM and the “Max % Inh.” value was 100%. In addition, in experiment [3], the Kd was 0.038 nM and 0.023 nM. For the same molecule, the binding result in experiment [4] is reported as “no binding (tested: 2 µg/mL)”. Moreover, the Kd in experiment [2] was 0.0003 nM.

B3: VGFB54 (antibody, human IgG1, lambda, L234A L235A, V domains shown)
VH: EVQLLESGGGSVQPGGSLRLSCTASGFNFEDYGMNWVRQAPGKGLDWVSSINRNGDISTYHVDSVKGRFTISRDNSKNTLYLQMNSLRAEDTAIYYCTKNHDYHGMDVWGQGTTVTVSS
VL: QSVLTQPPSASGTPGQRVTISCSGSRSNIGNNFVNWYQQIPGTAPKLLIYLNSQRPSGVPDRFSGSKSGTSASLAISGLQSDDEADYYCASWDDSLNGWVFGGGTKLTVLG
notes: human IgG1 (L234A/L235A/D265S), lambda, 2H:2L; from OmniChicken
Regarding B3, in experiment [1], the IC50 is 0.24 nM and the “Max % Inh.” value worked out at 98.4%. Moreover, the Kd in experiment [3] is 0.016 nM and 0.018 nM. Further, the binding result in experiment [4] is “no binding (tested: 2 µg/mL)”.

For the origin of these results see patent publication US20240425603A1 (Janssen / Centocor, published 2024).
